Laboratory results published in paper doi:10.1101/2025.05.23.654710.

Experiments:
Assay in all cases: EMSA
Msn2 WT = target: T1, Msn2 WT (Saccharomyces cerevisiae, UniProt P33748)
T1 sequence: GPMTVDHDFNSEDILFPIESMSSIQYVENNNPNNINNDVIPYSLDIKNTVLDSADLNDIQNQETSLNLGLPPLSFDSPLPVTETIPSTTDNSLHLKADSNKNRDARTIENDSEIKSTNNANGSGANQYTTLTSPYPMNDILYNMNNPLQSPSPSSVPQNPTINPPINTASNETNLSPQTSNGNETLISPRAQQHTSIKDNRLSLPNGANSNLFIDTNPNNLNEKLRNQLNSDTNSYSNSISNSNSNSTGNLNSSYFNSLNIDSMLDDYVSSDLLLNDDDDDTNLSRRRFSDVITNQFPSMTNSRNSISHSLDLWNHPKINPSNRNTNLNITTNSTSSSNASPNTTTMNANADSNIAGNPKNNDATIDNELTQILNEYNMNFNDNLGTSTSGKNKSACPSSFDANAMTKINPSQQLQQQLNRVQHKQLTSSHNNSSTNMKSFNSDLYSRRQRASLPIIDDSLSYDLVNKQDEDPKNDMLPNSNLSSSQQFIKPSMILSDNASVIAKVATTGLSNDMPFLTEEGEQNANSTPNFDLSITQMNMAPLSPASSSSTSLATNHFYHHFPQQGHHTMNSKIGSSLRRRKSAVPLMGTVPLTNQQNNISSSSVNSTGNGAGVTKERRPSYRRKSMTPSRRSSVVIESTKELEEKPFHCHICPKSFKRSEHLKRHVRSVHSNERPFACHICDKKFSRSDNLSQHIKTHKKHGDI

Msn2 DBD = target: T2, Msn2 DBD (Saccharomyces cerevisiae, UniProt P33748)
T2 sequence: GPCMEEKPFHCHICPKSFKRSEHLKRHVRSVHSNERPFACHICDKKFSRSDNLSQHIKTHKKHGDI

Msn2 IDR = target: T3, Msn2 IDR (Saccharomyces cerevisiae, UniProt P33748)
T3 sequence: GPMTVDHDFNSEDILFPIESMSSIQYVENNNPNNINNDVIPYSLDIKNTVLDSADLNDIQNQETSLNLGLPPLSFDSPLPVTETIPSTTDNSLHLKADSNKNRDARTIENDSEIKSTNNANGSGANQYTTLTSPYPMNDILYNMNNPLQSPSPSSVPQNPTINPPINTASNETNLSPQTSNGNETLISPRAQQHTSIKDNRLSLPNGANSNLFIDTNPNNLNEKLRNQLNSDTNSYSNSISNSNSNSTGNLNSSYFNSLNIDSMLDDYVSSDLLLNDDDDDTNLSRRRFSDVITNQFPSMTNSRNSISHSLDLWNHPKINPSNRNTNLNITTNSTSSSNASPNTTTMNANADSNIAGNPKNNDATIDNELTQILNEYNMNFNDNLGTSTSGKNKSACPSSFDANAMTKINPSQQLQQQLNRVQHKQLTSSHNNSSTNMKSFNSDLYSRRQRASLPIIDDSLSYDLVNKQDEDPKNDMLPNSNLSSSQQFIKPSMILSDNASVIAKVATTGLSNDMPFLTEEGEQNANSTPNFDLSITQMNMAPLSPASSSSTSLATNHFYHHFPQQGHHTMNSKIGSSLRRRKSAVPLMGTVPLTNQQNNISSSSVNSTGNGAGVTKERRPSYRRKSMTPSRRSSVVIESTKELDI

Measured: binding result

B1: 51 bp DNA with motif (dsDNA)
DNA 1: CGAAATTATATGGATGAGTAGGTGGGGAAGGAAGTATGTGTAGGTGGCAGG
DNA 2: CCTGCCACCTACACATACTTCCTTCCCCACCTACTCATCCATATAATTTCG
binds: Msn2 WT | Msn2 DBD | Msn2 IDR
